Reference: PMC11638003, “Plant phytochrome interactions decode light and temperature signals” (The Plant Cell, 2024)
No end group written: not given here.

T1: P6A-mScarlet-I (Arabidopsis PIF6 residues 14 to 53, APB.A portion, fused to mScarlet-I) (Arabidopsis thaliana, UniProt Q8L5W7 14-53)
T1 construct: mScarlet-I: GenBank APD76536; source: E. coli LOBSTR, purified (IMAC, SENP2 cleavage, second IMAC, optionally anion exchange); not shown: His6-SUMO, N-terminal, cleaved; mScarlet-I, C-terminal, kept
T1 chain (looked up): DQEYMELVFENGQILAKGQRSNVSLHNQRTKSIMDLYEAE

B1: P3A-mScarlet-I (Arabidopsis PIF3 residues 14 to 55, APB.A portion, fused to mScarlet-I) (domain or fragment, Arabidopsis thaliana, UniProt O80536 14-55, looked up)
chain: LESAQDRNPSPPVDEVVELVWENGQISTQSQSSRSRNIPPPQ-{mScarlet‑I}
notes: mScarlet-I: GenBank APD76536; source: E. coli LOBSTR, purified (IMAC, SENP2 cleavage, second IMAC, optionally anion exchange); not shown: His6-SUMO, N-terminal, cleaved; mScarlet-I, C-terminal, kept
B2: PIF6-mScarlet-I (Arabidopsis PIF6 residues 1 to 100 fused to mScarlet-I) (domain or fragment, Arabidopsis thaliana, UniProt Q8L5W7 1-100, looked up)
chain: MMFLPTDYCCRLSDQEYMELVFENGQILAKGQRSNVSLHNQRTKSIMDLYEAEYNEDFMKSIIHGGGGAITNLGDTQVVPQSHVAAAHETNMLESNKHVD
notes: mScarlet-I: GenBank APD76536; also called AtPIF6; source: E. coli LOBSTR, purified (IMAC, SENP2 cleavage, second IMAC, optionally anion exchange); not shown: His6-SUMO, N-terminal, cleaved
B3: Arabidopsis thaliana phytochrome B, N-terminal fragment encompassing the N-terminal extension (NTE) and the photosensory core module (AtPhyB PCM) (domain or fragment, UniProt P14713 1-651, looked up)
chain: MVSGVGGSGGGRGGGRGGEEEPSSSHTPNNRRGGEQAQSSGTKSLRPRSNTESMSKAIQQYTVDARLHAVFEQSGESGKSFDYSQSLKTTTYGSSVPEQQITAYLSRIQRGGYIQPFGCMIAVDESSFRIIGYSENAREMLGIMPQSVPTLEKPEILAMGTDVRSLFTSSSSILLERAFVAREITLLNPVWIHSKNTGKPFYAILHRIDVGVVIDLEPARTEDPALSIAGAVQSQKLAVRAISQLQALPGGDIKLLCDTVVESVRDLTGYDRVMVYKFHEDEHGEVVAESKRDDLEPYIGLHYPATDIPQASRFLFKQNRVRMIVDCNATPVLVVQDDRLTQSMCLVGSTLRAPHGCHSQYMANMGSIASLAMAVIINGNEDDGSNVASGRSSMRLWGLVVCHHTSSRCIPFPLRYACEFLMQAFGLQLNMELQLALQMSEKRVLRTQTLLCDMLLRDSPAGIVTQSPSIMDLVKCDGAAFLYHGKYYPLGVAPSEVQIKDVVEWLLANHADSTGLSTDSLGDAGYPGAAALGDAVCGMAVAYITKRDFLFWFRSHTAKEIKWGGAKHHPEDKDDGQRMHPRSSFQAFLEVVKSRSQPWETAEMDAIHSLQLILRDSFKESEAAMNSKVVDGVVQPCRDMAGEQGIDELGA
modifications: phycocyanobilin chromophore, covalently bound
notes: Phytochrome B, Arabidopsis thaliana, GenBank CAA35222.1; N-terminal fragment with the NTE and the PCM (nPAS-GAF-PHY), lacking PAS1, PAS2 and the HKRD; source: E. coli LOBSTR, purified (Co2+-NTA IMAC, anion exchange); plasmid also encodes Synechocystis sp. heme oxygenase 1 and PcyA
B4: PIF3-mScarlet-I (Arabidopsis PIF3 residues 1 to 100 fused to mScarlet-I) (domain or fragment, Arabidopsis thaliana, UniProt O80536 1-100, looked up)
chain: MPLFELFRLTKAKLESAQDRNPSPPVDEVVELVWENGQISTQSQSSRSRNIPPPQANSSRAREIGNGSKTTMVDEIPMSVPSLMTGLSQDDDFVPWLNHH
notes: mScarlet-I: GenBank APD76536; also called AtPIF3; source: E. coli LOBSTR, purified (IMAC, SENP2 cleavage, second IMAC, optionally anion exchange); not shown: His6-SUMO, N-terminal, cleaved

Key:
P3A or PIF3 = experiment: FRET or BRET; as a5 (association and dissociation kinetics after a red-light pulse) at several temperatures up to 30 °C; values told for 30 °C or for 30 °C against 15 °C
[1] = target: B3; experiment: FRET or BRET; association kinetics at 15 °C after a 0.5-s pulse of red light (658 nm, 69 mW cm^-2, optical shutter); 20 nM PIF-mScarlet-I variant with 500 to 2,000 nM AtPhyB PCM, or 30 nM P6A-mScarlet-I with 750 to 2,500 nM AtPhyB (1-982); 50 mM Tris/HCl pH 8.0, 20 mM NaCl; pseudo-first-order, linear fit of koFR against the AtPhyB concentration; kaFR corrected for the Pfr fraction; Kd calculated from kdFR and kaFR …; conditions: both partners purified
[2] = target: T1, P6A-mScarlet-I (Arabidopsis PIF6 …); experiment: FRET or BRET; as a5 (association and dissociation kinetics after a red-light pulse) at several temperatures up to 30 °C; values told for 30 °C or for 30 °C against 15 °C; conditions: both partners purified
[3] = target: B2; experiment: as above; conditions: both partners purified
[4] = target: T1, P6A-mScarlet-I (Arabidopsis PIF6 …); experiment: FRET or BRET; equilibrium titration: 20 nM P6A-mScarlet-I with 0 to 2,000 nM AtPhyB PCM at 15 °C after red light (658 nm); 50 mM Tris/HCl pH 8.0, 20 mM NaCl, 100 μg/mL BSA; single-site binding isotherm; conditions: both partners purified
[5] = target: T1, P6A-mScarlet-I (Arabidopsis PIF6 …); experiment: FRET or BRET; dissociation kinetics at 15 °C under continuous far-red light (733 nm, 42 mW cm^-2) after saturating red light; same samples as a5; consecutive model (Pfr to Pr reversion, then dissociation); kaR fixed at 0 (Pr state); conditions: both partners purified
[6] = target: B2; experiment: as above; conditions: both partners purified
[7] = target: B1; experiment: as above; conditions: both partners purified
[8] = target: B4; experiment: as above; conditions: both partners purified

Kd [1] [µM]	koff [1] [s⁻¹]	kon [1] [M⁻¹ s⁻¹]	fold change of kdFR, 30 °C against 15 °C [2] [fold]	Molecule	also measured
–	–	–	–	Arabidopsis thaliana phytochrome B, N-terminal fragment encompassing the N-terminal extension (NTE) and the photosensory core module (AtPhyB PCM) (from UniProt P14713 1-651) (domain or fragment)	fold reduction of the affinity, 30 °C against 15 °C (P3A or PIF3): 1.4 to 2.6 fold
0.322 ± 0.109	0.1	310000	–	B1	–
0.133 ± 0.055	0.07	520000	–	B2	–
–	–	–	6.5	B3	fold change of kaFR, 30 °C against 15 °C [2]: 1.3 fold; fold reduction of the affinity, 30 °C against 15 °C [3]: ~5 fold; KD on the total AtPhyB concentration (not corrected for the Pfr fraction) [4]: 0.18 ± 0.11 µM; kdR (dissociation rate constant of the complex in the Pr state) [5]: 2.5 s⁻¹; kdR (dissociation rate constant of the complex in the Pr state) [6]: 0.26 s⁻¹; kdR (dissociation rate constant of the complex in the Pr state) [7]: 1.9 s⁻¹; kdR (dissociation rate constant of the complex in the Pr state) [8]: 1.6 s⁻¹
–	–	–	5	Arabidopsis thaliana phytochrome B residues 1 to 982, AtPhyB (1-982) (domain or fragment, UniProt P14713 1-982, looked up, phycocyanobilin chromophore, covalently bound, the oligomeric state is not measured directly here; also called AtPhyB982; source: E. coli LOBSTR, purified (Co2+-NTA IMAC, anion exchange); plasmid also encodes Synechocystis sp. heme oxygenase 1 and PcyA) MVSGVGGSGGGRGGGRGGEEEPSSSHTPNNRRGGEQAQSSGTKSLRPRSNTESMSKAIQQYTVDARLHAVFEQSGESGKSFDYSQSLKTTTYGSSVPEQQITAYLSRIQRGGYIQPFGCMIAVDESSFRIIGYSENAREMLGIMPQSVPTLEKPEILAMGTDVRSLFTSSSSILLERAFVAREITLLNPVWIHSKNTGKPFYAILHRIDVGVVIDLEPARTEDPALSIAGAVQSQKLAVRAISQLQALPGGDIKLLCDTVVESVRDLTGYDRVMVYKFHEDEHGEVVAESKRDDLEPYIGLHYPATDIPQASRFLFKQNRVRMIVDCNATPVLVVQDDRLTQSMCLVGSTLRAPHGCHSQYMANMGSIASLAMAVIINGNEDDGSNVASGRSSMRLWGLVVCHHTSSRCIPFPLRYACEFLMQAFGLQLNMELQLALQMSEKRVLRTQTLLCDMLLRDSPAGIVTQSPSIMDLVKCDGAAFLYHGKYYPLGVAPSEVQIKDVVEWLLANHADSTGLSTDSLGDAGYPGAAALGDAVCGMAVAYITKRDFLFWFRSHTAKEIKWGGAKHHPEDKDDGQRMHPRSSFQAFLEVVKSRSQPWETAEMDAIHSLQLILRDSFKESEAAMNSKVVDGVVQPCRDMAGEQGIDELGAVAREMVRLIETATVPIFAVDAGGCINGWNAKIAELTGLSVEEAMGKSLVSDLIYKENEATVNKLLSRALRGDEEKNVEVKLKTFSPELQGKAVFVVVNACSSKDYLNNIVGVCFVGQDVTSQKIVMDKFINIQGDYKAIVHSPNPLIPPIFAADENTCCLEWNMAMEKLTGWSRSEVIGKMIVGEVFGSCCMLKGPDALTKFMIVLHNAIGGQDTDKFPFPFFDRNGKFVQALLTANKRVSLEGKVIGAFCFLQIPSPELQQALAVQRRQDTECFTKAKELAYICQVIKNPLSGMRFANSLLEATDLNEDQKQLLETSVSCEKQISRIVGD	fold reduction of the affinity, 30 °C against 15 °C [2]: 3 fold
0.308 ± 0.042	0.13	430000	–	B4	–
